Laboratory results taken from US20230033370A1 (Bicycle, published 2023).
*1 amine or outer side, *2 acyl side, *3 side chain or, on linkers, in order; H or OH if unused. Bridges are numbered along the chain shown (N, C = ends). Where no end group is shown, it is not given here. TCAN = N,N',N''-(nitrilotris(ethane-2,1-diyl))tris(2-chloroacetamide) scaffold, O=C(C[*:1])NCCN(CCNC(=O)C[*:2])CCNC(=O)C[*:3]

Target: T1, Human IL-17A (human, UniProt Q16552 24-155)
T1 construct: Soluble IL-17A used at a fixed concentration (75 nM with tracer BCY13196) in the FP assay; also called CTLA-8
T1 sequence (looked up): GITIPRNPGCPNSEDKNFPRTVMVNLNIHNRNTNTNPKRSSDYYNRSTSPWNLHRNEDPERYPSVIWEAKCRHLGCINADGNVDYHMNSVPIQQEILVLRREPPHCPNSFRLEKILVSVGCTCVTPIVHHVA
Experiment: fluorescence polarization competition, 75 nM human IL-17A, 1 nM tracer BCY13196 as competitor, mean of n=3
Method: Affinity determination by fluorescence polarization (FP) competition. Bicycles were screened to determine affinity (Ki) in a fluorescence polarisation assay where in competition with a bicycle labelled with fluorescein (referred to as tracer) with a known affinity for IL-17A. Peptides were diluted to an appropriate concentration in assay buffer (PBS+0.01% Tween20, adjusted to pH7.4 using NaOH (1M)) with a maximum of 1% DMSO, then serially diluted 1 in 2 into assay buffer. Into black 384-well low volume plates, 5 μL of diluted peptide was added to the plate followed by 10 μL of IL-17A at a fixed concentration (75 nM IL-17A for tracer BCY13196, 50 nM IL-17A for tracer BCY13351), then 10 μL tracer added to a final concentration of 1 nM. Measurements were conducted on a BMG PHERAstar FS equipped with an “FP 485 520 520” optic module which excites at 485 nm and detects parallel and perpendicular emission at 520 nm. The PHERAstar FS was set at 25° C. with 200 flashes per well and a positioning delay of 0.1 second, with each well measured at 5 to 10 minute intervals for 60 minutes. The gain used for measurements was determined at the point of experiment on a tracer alone well. Data analysis was performed in Dotmatics where mP values were fit to the Cheng Prusoff equation in order to generate a Ki value. The tracers used was BCY13196: [Fl]-[…] […]

B1: BCY13061 (peptide)
peptide: ACPQDLELCTFLFGDCA
modifications: linker 2-9-16 via TCAN
notes: Synthetic bicyclic peptide cyclised on the TCAN scaffold
Ki: 488 nM
